This passage reports He/Con_2aH results from patent publication US20150344570A1 (published 2015).

The assay has as its target T1, FcγRIIa H (human FcγRIIa, allotype H131, extracellular domain with C-terminal His tag) (human, UniProt P12318 34-217).
T1 construct: extracellular domain; Soluble extracellular domain expressed in FreeStyle293 cells; used as analyte in Biacore; also called FcgRIIa H; FcγRIIa type H; not shown: His tag attached to the C terminus
T1 sequence (looked up): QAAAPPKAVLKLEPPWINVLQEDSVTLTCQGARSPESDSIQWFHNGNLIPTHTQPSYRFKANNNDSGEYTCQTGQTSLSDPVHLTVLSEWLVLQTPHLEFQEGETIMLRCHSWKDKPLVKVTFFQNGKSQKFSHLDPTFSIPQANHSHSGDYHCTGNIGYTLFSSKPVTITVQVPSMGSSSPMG
In words: SPR (Biacore T100), antibody captured on antigen-peptide chip, FcγRIIa H as analyte; relative binding. The protocol:
Analysis of interaction between objective antibody and the FcγR was carried out using Biacore T100 (GE Healthcare). HBS-EP+ (GE Healthcare) was used as the running buffer, and the measurement temperature was set to 25° C. Chips produced by immobilizing the antigen peptide by the amine coupling method to a Series S Sencor Chip CM5 (GE Healthcare), or alternatively, chips produced by allowing preliminarily biotinylated antigen peptides to interact with and immobilize onto a Series S Sensor Chip SA (certified) (GE Healthcare) were used. Antibodies of interest were captured onto an antigen peptide-immobilized chip, and allowed to interact to each FcγR diluted with running buffer. To regenerate and repeatedly use the chip, the antibodies captured on the chip were washed off by reacting 10 mM glycine-HCl, pH 1.5.

B1: GpH7-A5/GpH7-B3 variant T335_04F/GpL16-k0 (heterodimerized antibody, He Ab) (antibody, human IgG1, kappa)
heavy 1: not shown
heavy 2: not shown
light: DIVMTQSPLSLPVTPGEPASISCQASESLVHSNRNTYLHWYLQKPGQSPQLLIYKVSNRFSGVPDRFSGSGSGTDFTLKISRVEAEDVGVYYCSQNTHVPPTFGQGTKVEIERTVAAPSVFIFPPSDEQLKSGTASVVCLLNNFYPREAKVQWKVDNALQSGNSQESVTEQDSKDSTYSLSSTLTLSKADYEKHKVYACEVTHQGLSSPVTKSFNRGEC
notes: Anti-glypican-3 IgG1 heterodimer; the alteration stands in one H chain only; EU numbering; also called T335_04F He Ab; T335F in one H chain
B1: the He/Con_2aH is 103 relative binding activity (control heterodimerized antibody GpH7-A5/GpH7-B3/GpL16-k0 = 100).

B2: GpH7-A5/GpH7-B3 variant Y300_08L/GpL16-k0 (heterodimerized antibody, He Ab) (antibody, human IgG1, kappa)
heavy 1: not shown
heavy 2: not shown
light: DIVMTQSPLSLPVTPGEPASISCQASESLVHSNRNTYLHWYLQKPGQSPQLLIYKVSNRFSGVPDRFSGSGSGTDFTLKISRVEAEDVGVYYCSQNTHVPPTFGQGTKVEIERTVAAPSVFIFPPSDEQLKSGTASVVCLLNNFYPREAKVQWKVDNALQSGNSQESVTEQDSKDSTYSLSSTLTLSKADYEKHKVYACEVTHQGLSSPVTKSFNRGEC
notes: Anti-glypican-3 IgG1 heterodimer; the alteration stands in one H chain only; EU numbering; also called Y300_08L He Ab; Y300L in one H chain
Consider B2, for which the He/Con_2aH is 108 relative binding activity (control heterodimerized antibody GpH7-A5/GpH7-B3/GpL16-k0 = 100).

B3: GpH7-A5/GpH7-B3 variant Y300_06M/GpL16-k0 (heterodimerized antibody, He Ab) (antibody, human IgG1, kappa)
heavy 1: not shown
heavy 2: not shown
light: DIVMTQSPLSLPVTPGEPASISCQASESLVHSNRNTYLHWYLQKPGQSPQLLIYKVSNRFSGVPDRFSGSGSGTDFTLKISRVEAEDVGVYYCSQNTHVPPTFGQGTKVEIERTVAAPSVFIFPPSDEQLKSGTASVVCLLNNFYPREAKVQWKVDNALQSGNSQESVTEQDSKDSTYSLSSTLTLSKADYEKHKVYACEVTHQGLSSPVTKSFNRGEC
notes: Anti-glypican-3 IgG1 heterodimer; the alteration stands in one H chain only; EU numbering; also called Y300_06M He Ab; Y300M in one H chain
As to B3, the He/Con_2aH is 105 relative binding activity (control heterodimerized antibody GpH7-A5/GpH7-B3/GpL16-k0 = 100).

B4: GpH7-A5/GpH7-B3 variant T335_06M/GpL16-k0 (heterodimerized antibody, He Ab) (antibody, human IgG1, kappa)
heavy 1: not shown
heavy 2: not shown
light: DIVMTQSPLSLPVTPGEPASISCQASESLVHSNRNTYLHWYLQKPGQSPQLLIYKVSNRFSGVPDRFSGSGSGTDFTLKISRVEAEDVGVYYCSQNTHVPPTFGQGTKVEIERTVAAPSVFIFPPSDEQLKSGTASVVCLLNNFYPREAKVQWKVDNALQSGNSQESVTEQDSKDSTYSLSSTLTLSKADYEKHKVYACEVTHQGLSSPVTKSFNRGEC
notes: Anti-glypican-3 IgG1 heterodimer; the alteration stands in one H chain only; EU numbering; also called T335_06M He Ab; T335M in one H chain
B4: the He/Con_2aH is 103 relative binding activity (control heterodimerized antibody GpH7-A5/GpH7-B3/GpL16-k0 = 100).

B5: GpH7-A5/GpH7-B3 variant T335_08L/GpL16-k0 (heterodimerized antibody, He Ab) (antibody, human IgG1, kappa)
heavy 1: not shown
heavy 2: not shown
light: DIVMTQSPLSLPVTPGEPASISCQASESLVHSNRNTYLHWYLQKPGQSPQLLIYKVSNRFSGVPDRFSGSGSGTDFTLKISRVEAEDVGVYYCSQNTHVPPTFGQGTKVEIERTVAAPSVFIFPPSDEQLKSGTASVVCLLNNFYPREAKVQWKVDNALQSGNSQESVTEQDSKDSTYSLSSTLTLSKADYEKHKVYACEVTHQGLSSPVTKSFNRGEC
notes: Anti-glypican-3 IgG1 heterodimer; the alteration stands in one H chain only; EU numbering; also called T335_08L He Ab; T335L in one H chain
Consider B5, for which the He/Con_2aH was 106 relative binding activity (control heterodimerized antibody GpH7-A5/GpH7-B3/GpL16-k0 = 100).
